According to patent US20250163119A1, “COMPOUNDS FOR THE TREATMENT OF DIABETES OR OBESITY” (Eli Lilly and Company, priority 2023, published 2025):
*1 amine or outer side, *2 acyl side, *3 side chain or, on linkers, in order; H or OH if unused. Where no end group is shown, it is not given here. Side-chain parts run from the residue outwards. [ ]: non-standard residue; d: D form. The star is where a group is joined. C20 diacid = O=C(O)CCCCCCCCCCCCCCCCCCC(=O)*; γGlu = O=C(O)[C@H](CCC(=O)[*:2])N[*:1]; αMeL = CC(C)C[C@](C)(N)C(=O)O; AEEA = NCCOCCOCC(=O)O; Aib = CC(C)(N)C(=O)O; Ahx = NCCCCCC(=O)O

T1: human corticotropin-releasing hormone receptor 1 (CRHR1) (human, UniProt P34998 24-415)
T1 sequence (looked up): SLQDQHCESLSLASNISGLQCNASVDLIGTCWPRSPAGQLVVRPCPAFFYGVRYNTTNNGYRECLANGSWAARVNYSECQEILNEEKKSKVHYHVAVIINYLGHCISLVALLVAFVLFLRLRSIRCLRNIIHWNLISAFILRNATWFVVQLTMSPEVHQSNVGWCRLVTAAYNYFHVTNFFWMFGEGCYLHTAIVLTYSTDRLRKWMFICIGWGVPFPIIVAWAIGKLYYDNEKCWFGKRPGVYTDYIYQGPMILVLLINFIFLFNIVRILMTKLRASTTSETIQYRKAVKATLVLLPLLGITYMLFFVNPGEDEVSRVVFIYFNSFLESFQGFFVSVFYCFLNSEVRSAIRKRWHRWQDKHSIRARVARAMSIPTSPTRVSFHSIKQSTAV

B1: polypeptide comprising SEQ ID NO:43 (peptide)
peptide: Ac-IVTS[αMeL]D[dV]PTG[αMeL]LQIKLEQERAEKARQQAKENTEILAQV-NH2
modifications: not fully specified (residue 29)
B2: polypeptide comprising SEQ ID NO:42 (peptide)
peptide: Ac-IVTS[αMeL]D[dV]PI[Aib][αMeL]LQIKLEQERAEKARQQAK([AEEA-AEEA-γGlu-C20 diacid])ENTEILAQV-NH2
SMILES: CC[C@H](C)[C@H](NC(C)=O)C(=O)N[C@H](C(=O)N[C@H](C(=O)N[C@@H](CO)C(=O)N[C@@](C)(CC(C)C)C(=O)N[C@@H](CC(=O)O)C(=O)N[C@@H](C(=O)N1CCC[C@H]1C(=O)N[C@H](C(=O)NC(C)(C)C(=O)N[C@@](C)(CC(C)C)C(=O)N[C@@H](CC(C)C)C(=O)N[C@@H](CCC(N)=O)C(=O)N[C@H](C(=O)N[C@@H](CCCCN)C(=O)N[C@@H](CC(C)C)C(=O)N[C@@H](CCC(=O)O)C(=O)N[C@@H](CCC(N)=O)C(=O)N[C@@H](CCC(=O)O)C(=O)N[C@@H](CCCNC(=N)N)C(=O)N[C@@H](C)C(=O)N[C@@H](CCC(=O)O)C(=O)N[C@@H](CCCCN)C(=O)N[C@@H](C)C(=O)N[C@@H](CCCNC(=N)N)C(=O)N[C@@H](CCC(N)=O)C(=O)N[C@@H](CCC(N)=O)C(=O)N[C@@H](C)C(=O)N[C@@H](CCCCNC(=O)COCCOCCNC(=O)COCCOCCNC(=O)CC[C@H](NC(=O)CCCCCCCCCCCCCCCCCCC(=O)O)C(=O)O)C(=O)N[C@@H](CCC(=O)O)C(=O)N[C@@H](CC(N)=O)C(=O)N[C@H](C(=O)N[C@@H](CCC(=O)O)C(=O)N[C@H](C(=O)N[C@@H](CC(C)C)C(=O)N[C@@H](C)C(=O)N[C@@H](CCC(N)=O)C(=O)N[C@H](C(N)=O)C(C)C)[C@@H](C)CC)[C@@H](C)O)[C@@H](C)CC)[C@@H](C)CC)C(C)C)[C@@H](C)O)C(C)C
B3: polypeptide comprising SEQ ID NO:45 (peptide)
peptide: [γGlu]GPSIVTS[αMeL]D[dV]PI[Aib][αMeL]LQIKLEQERAEKARQQAK([AEEA-AEEA-γGlu-C20 diacid])ENTEILAQV-NH2
B4: polypeptide comprising SEQ ID NO:39 (peptide)
peptide: Ac-IVTS[αMeL]D[dV]PTG[αMeL]LQIKLEQERAEKARQQAKENTEILAQV-NH2
modifications: not fully specified (residue 29)
B5: polypeptide comprising SEQ ID NO:34 (peptide)
peptide: Ac-IVTS[αMeL]D[dV]PTG[αMeL]LQIKLEQERAEKARQQAKENTEILAQV-NH2
modifications: not fully specified (residue 29)
B6: polypeptide comprising SEQ ID NO:40 (peptide)
peptide: Ac-IVTS[αMeL]D[dV]PTG[αMeL]LQIKLEQERAEKARQQAKENTEILAQV-NH2
modifications: not fully specified (residue 29)
B7: polypeptide comprising SEQ ID NO:38 (peptide)
peptide: Ac-IVTS[αMeL]D[dV]PTG[αMeL]LQIKLEQERAEKARQQAKENTEILAQV-NH2
modifications: not fully specified (residue 29)
B8: polypeptide comprising SEQ ID NO:41 (peptide)
peptide: Ac-IVTS[αMeL]D[dV]PT[Aib][αMeL]LQIKLEQERAEKARQQAK([AEEA-AEEA-γGlu-C20 diacid])ENTEILAQV-NH2
SMILES: CC[C@H](C)[C@H](NC(C)=O)C(=O)N[C@H](C(=O)N[C@H](C(=O)N[C@@H](CO)C(=O)N[C@@](C)(CC(C)C)C(=O)N[C@@H](CC(=O)O)C(=O)N[C@@H](C(=O)N1CCC[C@H]1C(=O)N[C@H](C(=O)NC(C)(C)C(=O)N[C@@](C)(CC(C)C)C(=O)N[C@@H](CC(C)C)C(=O)N[C@@H](CCC(N)=O)C(=O)N[C@H](C(=O)N[C@@H](CCCCN)C(=O)N[C@@H](CC(C)C)C(=O)N[C@@H](CCC(=O)O)C(=O)N[C@@H](CCC(N)=O)C(=O)N[C@@H](CCC(=O)O)C(=O)N[C@@H](CCCNC(=N)N)C(=O)N[C@@H](C)C(=O)N[C@@H](CCC(=O)O)C(=O)N[C@@H](CCCCN)C(=O)N[C@@H](C)C(=O)N[C@@H](CCCNC(=N)N)C(=O)N[C@@H](CCC(N)=O)C(=O)N[C@@H](CCC(N)=O)C(=O)N[C@@H](C)C(=O)N[C@@H](CCCCNC(=O)COCCOCCNC(=O)COCCOCCNC(=O)CC[C@H](NC(=O)CCCCCCCCCCCCCCCCCCC(=O)O)C(=O)O)C(=O)N[C@@H](CCC(=O)O)C(=O)N[C@@H](CC(N)=O)C(=O)N[C@H](C(=O)N[C@@H](CCC(=O)O)C(=O)N[C@H](C(=O)N[C@@H](CC(C)C)C(=O)N[C@@H](C)C(=O)N[C@@H](CCC(N)=O)C(=O)N[C@H](C(N)=O)C(C)C)[C@@H](C)CC)[C@@H](C)O)[C@@H](C)CC)[C@@H](C)O)C(C)C)[C@@H](C)O)C(C)C
B9: polypeptide comprising SEQ ID NO:32 (peptide)
peptide: Ac-IVTS[αMeL]D[dV]PTG[αMeL]LQIKLEQERAEKARQQAKENTEILAQV-NH2
modifications: not fully specified (residue 29)
B10: polypeptide comprising SEQ ID NO:35 (peptide)
peptide: Ac-IVTS[αMeL]D[dV]PTG[αMeL]LQIKLEQERAEKARQQAKENTEILAQV-NH2
modifications: not fully specified (residue 29)
B11: polypeptide comprising SEQ ID NO:4 (peptide)
peptide: Ac-GSPSIVTS[αMeL]DVPT[Aib][αMeL]LQKILEQERAEKARQQAK([Ahx-AEEA-γGlu-C20 diacid])EAAEILAQV-NH2
B12: polypeptide comprising SEQ ID NO:37 (peptide)
peptide: Ac-IVTS[αMeL]D[dV]PTG[αMeL]LQIKLEQERAEKARQQAKENTEILAQV-NH2
modifications: not fully specified (residue 29)
B13: polypeptide comprising SEQ ID NO:44 (peptide)
peptide: Ac-IVTS[αMeL]D[dV]PTG[αMeL]LQIKLEQERAEKARQQAKENTEILAQV-NH2
modifications: not fully specified (residue 29)
B14: polypeptide comprising SEQ ID NO:36 (peptide)
peptide: Ac-IVTS[αMeL]D[dV]PTG[αMeL]LQIKLEQERAEKARQQAKENTEILAQV-NH2
modifications: not fully specified (residue 29)
B15: polypeptide comprising SEQ ID NO:33 (peptide)
peptide: Ac-IVTS[αMeL]D[dV]PTG[αMeL]LQIKLEQERAEKARQQAKENTEILAQV-NH2
modifications: not fully specified (residue 29)

These binders were tested against T1, human corticotropin-releasing hormone … (assay: cell-based or functional assay).

Binder	hCRHR1 cAMP EC50
B1	> 10 µM
B2	2.3 µM
B3	3.7 µM
B4	3.7 µM
B5	> 10 µM
B6	> 10 µM
B7	1.1 µM
B8	3.7 µM
B9	> 10 µM
B10	3 µM
B11	> 10 µM
B12	1.7 µM
B13	> 10 µM
B14	1.8 µM
B15	1.1 µM
